B2: TtRecF_(D57C) (natural protein, Thermus thermophilus, UniProt Q5SLM9 1-343, looked up)
chain: MRLLLFRQRNFRNLALEAYRPPPGLSALVGANAQGKTSLLLGIHLALGGEVPLGLACLVRFGEEEAWLHAEVETELGAYRLEHRLGPGGREVLLNGKRVSLRTLWELPGSVLVSPLDLEAVLGPKEERRAYLDRLIARFSRRYAALLSAYEKALRQRNALLKAGGEGLSAWDRELARYGDEIVALRRRFLRRFAPILREVHAALAAKEAGLRLEETAGEGVLRALEASRAEERERGQTLVGPHRDDLVFLLEGRPAHRFASRGEAKTLALALRLAEHRLLGEHHGEPPLLLVDEWGEELDEARRRAVLAYAQALPQAILAGLEAPPGVPVCSVVRGVVLCPGA
B4: TtRecF_(S261C) (natural protein, Thermus thermophilus, UniProt Q5SLM9 1-343, looked up)
chain: MRLLLFRQRNFRNLALEAYRPPPGLSALVGANAQGKTSLLLGIHLALGGEVPLGLADLVRFGEEEAWLHAEVETELGAYRLEHRLGPGGREVLLNGKRVSLRTLWELPGSVLVSPLDLEAVLGPKEERRAYLDRLIARFSRRYAALLSAYEKALRQRNALLKAGGEGLSAWDRELARYGDEIVALRRRFLRRFAPILREVHAALAAKEAGLRLEETAGEGVLRALEASRAEERERGQTLVGPHRDDLVFLLEGRPAHRFACRGEAKTLALALRLAEHRLLGEHHGEPPLLLVDEWGEELDEARRRAVLAYAQALPQAILAGLEAPPGVPVCSVVRGVVLCPGA

Tests used:
TtRecF;TtRecR = target: T1, TtRecF;TtRecR (Thermus thermophilus;Thermus …, UniProt Q5SLM9;Q5SHY0 1-343;1-194, |); assay: EMSA
T1 sequence 1: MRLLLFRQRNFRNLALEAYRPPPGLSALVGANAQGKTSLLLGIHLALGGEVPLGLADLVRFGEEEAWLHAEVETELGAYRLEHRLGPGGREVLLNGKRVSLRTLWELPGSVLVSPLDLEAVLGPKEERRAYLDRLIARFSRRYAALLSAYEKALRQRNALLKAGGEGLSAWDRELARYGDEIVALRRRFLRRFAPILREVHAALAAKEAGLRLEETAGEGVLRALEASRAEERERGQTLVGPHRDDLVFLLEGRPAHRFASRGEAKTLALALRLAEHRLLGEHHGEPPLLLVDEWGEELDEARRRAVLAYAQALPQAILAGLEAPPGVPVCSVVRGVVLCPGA
T1 sequence 2: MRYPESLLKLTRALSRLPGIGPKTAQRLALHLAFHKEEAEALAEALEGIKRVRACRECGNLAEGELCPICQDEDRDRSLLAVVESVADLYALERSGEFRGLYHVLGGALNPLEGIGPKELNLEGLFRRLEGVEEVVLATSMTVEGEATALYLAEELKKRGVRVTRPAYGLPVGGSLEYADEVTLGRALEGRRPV

TtRecF = target: T2, TtRecF (Thermus thermophilus, UniProt Q5SLM9 1-343); assay: EMSA
T2 sequence: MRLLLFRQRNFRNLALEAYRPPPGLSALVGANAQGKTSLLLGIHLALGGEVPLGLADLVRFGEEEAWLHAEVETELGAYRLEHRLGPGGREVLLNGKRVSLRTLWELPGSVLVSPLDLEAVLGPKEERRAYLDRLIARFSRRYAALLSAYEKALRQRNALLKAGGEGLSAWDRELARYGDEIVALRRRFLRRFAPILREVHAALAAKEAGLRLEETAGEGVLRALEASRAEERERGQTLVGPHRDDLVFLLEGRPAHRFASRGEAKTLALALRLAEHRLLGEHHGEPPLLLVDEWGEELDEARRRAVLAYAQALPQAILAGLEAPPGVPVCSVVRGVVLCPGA

TtRecR G169C = target: T3, TtRecR G169C (Thermus thermophilus, UniProt Q5SHY0 1-194, G169C); assay: EMSA
T3 sequence: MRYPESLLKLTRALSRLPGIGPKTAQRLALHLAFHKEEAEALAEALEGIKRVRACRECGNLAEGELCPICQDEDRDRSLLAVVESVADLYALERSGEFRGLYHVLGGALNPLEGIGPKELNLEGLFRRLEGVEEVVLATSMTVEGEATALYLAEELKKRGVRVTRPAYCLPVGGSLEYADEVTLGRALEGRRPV

TtRecR = target: T4, TtRecR (Thermus thermophilus, UniProt Q5SHY0 1-194); assay: EMSA
T4 sequence: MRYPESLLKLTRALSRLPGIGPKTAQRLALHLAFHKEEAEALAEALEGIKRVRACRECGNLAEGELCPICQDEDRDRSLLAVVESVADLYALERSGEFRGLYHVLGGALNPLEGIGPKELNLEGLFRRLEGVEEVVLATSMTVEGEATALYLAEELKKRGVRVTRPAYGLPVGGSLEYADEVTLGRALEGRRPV

TtRecF;TtRecR G169C = target: T5, TtRecF;TtRecR G169C (Thermus thermophilus;Thermus …, UniProt Q5SLM9;Q5SHY0 1-343;1-194, |G169C); assay: EMSA
T5 sequence 1: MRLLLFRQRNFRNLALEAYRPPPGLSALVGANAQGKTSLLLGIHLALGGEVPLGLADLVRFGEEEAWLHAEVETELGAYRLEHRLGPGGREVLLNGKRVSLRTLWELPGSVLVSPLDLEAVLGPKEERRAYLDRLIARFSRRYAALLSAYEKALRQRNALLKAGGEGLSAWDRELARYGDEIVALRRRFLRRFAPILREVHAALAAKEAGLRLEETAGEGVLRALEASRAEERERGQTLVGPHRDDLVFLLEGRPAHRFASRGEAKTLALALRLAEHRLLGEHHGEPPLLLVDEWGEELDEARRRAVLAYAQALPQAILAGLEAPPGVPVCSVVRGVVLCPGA
T5 sequence 2: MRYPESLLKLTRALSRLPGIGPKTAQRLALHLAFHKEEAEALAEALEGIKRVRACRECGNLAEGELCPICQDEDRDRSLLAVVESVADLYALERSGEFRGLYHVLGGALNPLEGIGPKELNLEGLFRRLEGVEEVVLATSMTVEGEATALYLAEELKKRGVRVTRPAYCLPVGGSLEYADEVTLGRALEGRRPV

crystal structure = target: the molecule itself; assay: crystal structure
TtRecF_(D57C) = target: B2; assay: BLI
TtRecF_(S261C) = target: B4; assay: BLI
[1] = target: T6, TtRecF (wild type RecF from Thermus thermophilus) (Thermus thermophilus, UniProt Q5SLM9 1-343); assay: native gel or EMSA
T6 sequence (looked up): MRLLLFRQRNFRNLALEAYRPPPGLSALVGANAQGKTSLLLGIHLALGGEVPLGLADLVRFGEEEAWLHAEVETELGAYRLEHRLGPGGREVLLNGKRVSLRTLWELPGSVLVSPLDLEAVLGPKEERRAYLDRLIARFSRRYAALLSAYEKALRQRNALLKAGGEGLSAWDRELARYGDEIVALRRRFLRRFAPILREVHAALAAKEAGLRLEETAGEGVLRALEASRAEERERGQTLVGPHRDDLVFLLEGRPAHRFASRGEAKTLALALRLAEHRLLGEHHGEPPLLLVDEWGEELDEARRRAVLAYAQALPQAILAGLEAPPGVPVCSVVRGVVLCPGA

cross-linking = target: the molecule itself; assay: cross-linking

## TTTTTTTTTTTTTTTTTTTTTTTTTTTTTTTTTTT (ssDNA) [FAM-dT35]
TtRecF;TtRecR
  binding result: binds
TtRecF
  binding result: no binding
TtRecR G169C
  binding result: no binding
TtRecR
  binding result: no binding
TtRecF;TtRecR G169C
  binding result: no binding

B1: TtRecR (wild type RecR from Thermus thermophilus) (natural protein, UniProt Q5SHY0 1-194, looked up)
chain: MRYPESLLKLTRALSRLPGIGPKTAQRLALHLAFHKEEAEALAEALEGIKRVRACRECGNLAEGELCPICQDEDRDRSLLAVVESVADLYALERSGEFRGLYHVLGGALNPLEGIGPKELNLEGLFRRLEGVEEVVLATSMTVEGEATALYLAEELKKRGVRVTRPAYGLPVGGSLEYADEVTLGRALEGRRPV
Crystal structure
  stoichiometry N: 4
TtRecF_(D57C)
  binding result: binds
TtRecF_(S261C)
  binding result: binds
[1]
  binding result: binds

## B2
cross-linking
  stoichiometry N: 2

B3: TtRecR_(G169C) (stabilized tetrameric mutant of TtRecR) (natural protein, Thermus thermophilus, UniProt Q5SHY0 1-194, looked up)
chain: MRYPESLLKLTRALSRLPGIGPKTAQRLALHLAFHKEEAEALAEALEGIKRVRACRECGNLAEGELCPICQDEDRDRSLLAVVESVADLYALERSGEFRGLYHVLGGALNPLEGIGPKELNLEGLFRRLEGVEEVVLATSMTVEGEATALYLAEELKKRGVRVTRPAYCLPVGGSLEYADEVTLGRALEGRRPV
[1]
  binding result: binds
cross-linking
  stoichiometry N: 4

## B4
cross-linking
  stoichiometry N: 2
